Laboratory results taken from patent US20240075152A1.

Legend:
[1] = target: GCN4-p2L variant (trimeric variant of GCN4 peptide with N-terminal NTA and C-terminal His2), assembled into hexagonal 3D crystals with Zn2+; assay: crystals dissolved with EDTA; peptide by UPLC, protein by fluorescence spectroscopy
[2] = target: GCN4-p2L variant (trimeric variant of GCN4 peptide with N-terminal NTA and C-terminal His2), assembled into hexagonal 3D crystals with Zn2+; assay: derived from the EDTA dissolution data and the hourglass volume (about 50%)

For “Enhanced green fluorescent protein with an N-terminal His6-tag (EGFP)”, the coiled-coil units for each protein guest (coiled-coil units per protein) [1] was 60 to 70, the ratio of peptide to protein cargo in the crystals (peptide : protein) [1] was 200 and the coiled-coils for each protein guest within the hourglass section (coiled-coils per protein) [2] was 30 to 35.
